In patent US20080274480A1:

Molecular target: BoNT/A receptor on mouse brain synaptosomes (mouse)

## active BoNT/A toxin (Metabiologics, Inc.), unlabeled (from UniProt P0DPI1 2-1296)
  percent inhibition at 2.0 µg: 78%
